Assay results reported in the supplement of paper PMC9112550, “Optimization of the antimicrobial peptide Bac7 by deep mutational scanning” (BMC Biology, 2022).

Test system: Escherichia coli TOP10
Experiment: shrunken log2 fold change of peptide-encoding DNA abundance (4.5 h post-induction vs induction); higher = less antimicrobial activity (less host growth inhibition)
Conditions: time post-induction: 4.5 h; library: site-saturation at positions 5, 18, 19, 20
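Further: peptides expressed intracellularly from a pBAD plasmid library in pooled LB shake-flask culture, induced with 0.3% L-arabinose, DNA abundance read by NGS, three biological replicates, DESeq2 with apeglm shrinkage.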

| Sequence | shrunken log2 fold change |
| --- | --- |
| RRIRIRPPRLPRPRPRPIVVPRP | -0.666 |
| RRIRWRPPRLPRPRPRPRACPRP | 0.468 |
| RRIRHRPPRLPRPRPRPMLWPRP | 0.0253 |
| RRIRWRPPRLPRPRPRPASGPRP | 0.461 |
| RRIRIRPPRLPRPRPRPHPIPRP | -0.265 |
| RRIRQRPPRLPRPRPRPTNQPRP | 0.0625 |
| RRIRARPPRLPRPRPRPPCVPRP | 0.342 |
| RRIRERPPRLPRPRPRPKEEPRP | -0.000921 |
| RRIRWRPPRLPRPRPRPESTPRP | 1.17 |
| RRIRIRPPRLPRPRPRPVVNPRP | -0.356 |
| RRIRLRPPRLPRPRPRPISTPRP | -0.161 |
| RRIRERPPRLPRPRPRPWCTPRP | -0.391 |
| RRIRTRPPRLPRPRPRPPRRPRP | 0.386 |
| RRIRCRPPRLPRPRPRPEQAPRP | 0.219 |
| RRIRLRPPRLPRPRPRPQQCPRP | 0.146 |
| RRIRPRPPRLPRPRPRPAWEPRP | 0.216 |
| RRIRKRPPRLPRPRPRPTSMPRP | 0.508 |
| RRIRTRPPRLPRPRPRPSCVPRP | -0.185 |
| RRIRRRPPRLPRPRPRPYVFPRP | -0.623 |
| RRIRCRPPRLPRPRPRPYVPPRP | -0.323 |
| RRIRMRPPRLPRPRPRPYDPPRP | -0.328 |
| RRIRYRPPRLPRPRPRPTKLPRP | -0.683 |
| RRIRVRPPRLPRPRPRPIYDPRP | -0.576 |

| Sequence | shrunken log2 fold change |
| --- | --- |
| RRIRERPPRLPRPRPRPHDCPRP | -0.715 |
| RRIRCRPPRLPRPRPRPMYIPRP | -0.675 |
| RRIRCRPPRLPRPRPRPWQQPRP | -0.000303 |
| RRIRWRPPRLPRPRPRPDVDPRP | -0.0413 |
| RRIRRRPPRLPRPRPRPNLSPRP | -0.0897 |
| RRIRLRPPRLPRPRPRPASYPRP | -0.308 |
| RRIRRRPPRLPRPRPRPPHEPRP | 0.449 |
| RRIRIRPPRLPRPRPRPGVEPRP | -0.0594 |
| RRIRMRPPRLPRPRPRPFCWPRP | 0.421 |
| RRIRQRPPRLPRPRPRPDRYPRP | 0.0513 |
| RRIRARPPRLPRPRPRPPRHPRP | 0.937 |
| RRIRCRPPRLPRPRPRPLCLPRP | -0.525 |
| RRIRTRPPRLPRPRPRPQGAPRP | -0.0215 |
| RRIRGRPPRLPRPRPRPSMYPRP | 0.173 |
| RRIRWRPPRLPRPRPRPPDYPRP | 0.184 |
| RRIRDRPPRLPRPRPRPTDRPRP | 0.694 |
| RRIRNRPPRLPRPRPRPIVAPRP | -0.367 |
| RRIRKRPPRLPRPRPRPKFIPRP | -1.04 |
| RRIRERPPRLPRPRPRPAWNPRP | 0.167 |
| RRIRGRPPRLPRPRPRPDWLPRP | 0.963 |
| RRIRARPPRLPRPRPRPFMDPRP | 0.00846 |
| RRIRVRPPRLPRPRPRPSMMPRP | -0.888 |
| RRIRARPPRLPRPRPRPKCVPRP | 0.463 |

| Sequence | shrunken log2 fold change |
| --- | --- |
| RRIRCRPPRLPRPRPRPDQCPRP | -0.00126 |
| RRIRLRPPRLPRPRPRPTKNPRP | 0.00698 |
| RRIRMRPPRLPRPRPRPHQHPRP | -0.0409 |
| RRIRERPPRLPRPRPRPLIIPRP | -1 |
| RRIRRRPPRLPRPRPRPSGVPRP | -0.181 |
| RRIRCRPPRLPRPRPRPNSMPRP | -0.745 |
| RRIRARPPRLPRPRPRPPHWPRP | 1.08 |
| RRIRLRPPRLPRPRPRPQIKPRP | -0.187 |
| RRIRERPPRLPRPRPRPTENPRP | -0.0185 |
| RRIRQRPPRLPRPRPRPDKIPRP | -0.00225 |
| RRIRIRPPRLPRPRPRPRDNPRP | -0.348 |
| RRIRERPPRLPRPRPRPPTHPRP | 0.0517 |
| RRIRFRPPRLPRPRPRPVKWPRP | 0.0401 |
| RRIRFRPPRLPRPRPRPKFYPRP | -0.308 |
| RRIRFRPPRLPRPRPRPFKVPRP | -0.327 |
| RRIRLRPPRLPRPRPRPKEPPRP | -0.0333 |
| RRIRTRPPRLPRPRPRPAHIPRP | 0.0726 |
| RRIRPRPPRLPRPRPRPALGPRP | 0.964 |
| RRIRWRPPRLPRPRPRPANVPRP | -0.624 |
| RRIRGRPPRLPRPRPRPIVRPRP | 0.211 |
| RRIRDRPPRLPRPRPRPPKLPRP | 0.0369 |
| RRIRHRPPRLPRPRPRPLTCPRP | -0.0216 |
| RRIRARPPRLPRPRPRPAGLPRP | 0.387 |

| Sequence | shrunken log2 fold change |
| --- | --- |
| RRIRWRPPRLPRPRPRPMHEPRP | -0.0461 |
| RRIRRRPPRLPRPRPRPKWRPRP | 0.587 |
| RRIRWRPPRLPRPRPRPPVRPRP | 0.108 |
| RRIRYRPPRLPRPRPRPPIQPRP | -0.589 |
| RRIRTRPPRLPRPRPRPHQNPRP | -0.253 |
| RRIRFRPPRLPRPRPRPVSVPRP | -0.341 |
| RRIRKRPPRLPRPRPRPNGQPRP | 0.203 |
| RRIRRRPPRLPRPRPRPGICPRP | 0.0771 |
| RRIRRRPPRLPRPRPRPPGNPRP | 0.428 |
| RRIRWRPPRLPRPRPRPFRIPRP | -0.5 |
| RRIRVRPPRLPRPRPRPKHYPRP | -0.459 |
| RRIRSRPPRLPRPRPRPVVMPRP | 0.0334 |
| RRIRYRPPRLPRPRPRPGDPPRP | -0.223 |
| RRIRTRPPRLPRPRPRPGMDPRP | 0.0475 |
| RRIRPRPPRLPRPRPRPLRVPRP | 0.615 |
| RRIRSRPPRLPRPRPRPYFMPRP | -0.848 |
| RRIRPRPPRLPRPRPRPTGGPRP | 0.392 |
| RRIRNRPPRLPRPRPRPIARPRP | -0.0163 |
| RRIRRRPPRLPRPRPRPDQAPRP | -0.00925 |
| RRIRPRPPRLPRPRPRPPTEPRP | 0.306 |
| RRIRGRPPRLPRPRPRPQQAPRP | -0.0245 |
| RRIRKRPPRLPRPRPRPHETPRP | -0.0327 |
